Measured values from patent US20170165373A1 (Amgen, published 2017).
Substitutions are numbered along the chain they refer to. In names and notes the source's numbering stands. Where two headings read alike, the source gives them in different places.

How the values were obtained:
[1] = biological target: T1, human BCMA (huBCMA), full length, on cells (human, UniProt Q02223 1-184); test: cell-based or functional assay
T1 chain: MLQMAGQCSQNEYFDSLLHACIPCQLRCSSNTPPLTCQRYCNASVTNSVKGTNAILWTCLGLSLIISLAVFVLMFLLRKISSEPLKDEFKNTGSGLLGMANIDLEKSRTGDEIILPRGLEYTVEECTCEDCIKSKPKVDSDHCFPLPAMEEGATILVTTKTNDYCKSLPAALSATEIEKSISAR

[2] = biological target: T2, recombinant soluble human BCMA (Biacore analyte of Example 2) (human, UniProt Q02223 1-54); test: Biacore 3000 SPR, antibody captured on anti-human IgG, rhu BCMA as analyte, 25 C
T2 construct: also called rhu BCMA; rsol.hu BCMA
T2 sequence: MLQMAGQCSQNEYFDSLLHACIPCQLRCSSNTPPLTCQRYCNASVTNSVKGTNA

[3] = biological target: T1, human BCMA (huBCMA), full length, on …; test: FACS equilibrium titration on 293T cells transiently transfected with human BCMA (relative FACS affinity)
[4] = biological target: T3, cynomolgus BCMA, on transiently transfected 293T cells (cynomolgus (Macaca fascicularis), UniProt Q02223 1-184 (human entry)); test: FACS equilibrium titration on 293T cells transiently transfected with cynomolgus BCMA (relative FACS affinity)
T3 construct: also called cyno BCMA

[5] = biological target: T4, TACI, full length, on transiently transfected cells (human, UniProt O14836 1-293); test: FACS on cells transiently transfected with the full-length receptor; positive if MFI is two times the negative control
T4 construct: whole, on cells; also called huTACI
T4 sequence (looked up): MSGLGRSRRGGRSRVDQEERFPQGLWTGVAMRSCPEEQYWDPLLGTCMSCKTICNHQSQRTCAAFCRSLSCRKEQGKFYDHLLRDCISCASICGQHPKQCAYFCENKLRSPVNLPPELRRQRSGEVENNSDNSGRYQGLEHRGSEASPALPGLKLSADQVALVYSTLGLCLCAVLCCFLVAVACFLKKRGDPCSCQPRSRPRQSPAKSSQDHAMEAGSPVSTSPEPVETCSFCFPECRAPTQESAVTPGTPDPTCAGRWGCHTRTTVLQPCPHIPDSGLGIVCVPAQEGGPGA

[6] = biological target: T5, BAFF-R, full length, on transiently transfected cells (human, UniProt Q96RJ3 1-184); test: as above
T5 construct: whole, on cells; also called huBAFF-R
T5 sequence (looked up): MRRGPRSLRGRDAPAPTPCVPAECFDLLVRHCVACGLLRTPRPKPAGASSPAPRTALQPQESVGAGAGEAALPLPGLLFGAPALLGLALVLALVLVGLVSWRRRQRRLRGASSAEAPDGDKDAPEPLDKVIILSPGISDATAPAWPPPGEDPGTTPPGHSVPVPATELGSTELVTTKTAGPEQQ

[7] = biological target: T1, human BCMA (huBCMA), full length, on …; test: FACS, H929 cells
[8] = biological target: T1, human BCMA (huBCMA), full length, on …; test: FACS, H929 cells
[9] = biological target: T1, human BCMA (huBCMA), full length, on …; test: FACS, H929 cells
[10] = biological target: T6, clipped form of the rhuBCMA fusion protein, SEQ ID NO:356 (human); test: LC/MS (ESI-TOF, reduced sample) of the SEC-isolated 2A1 + SumoBCMA sample
T6 chain: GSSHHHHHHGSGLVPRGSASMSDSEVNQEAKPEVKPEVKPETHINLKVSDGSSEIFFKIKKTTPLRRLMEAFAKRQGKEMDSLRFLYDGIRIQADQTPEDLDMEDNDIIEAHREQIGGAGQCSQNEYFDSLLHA

[11] = biological target: T7, clipped form of the rhuBCMA fusion protein, SEQ ID NO:357 (human); test: as above
T7 chain: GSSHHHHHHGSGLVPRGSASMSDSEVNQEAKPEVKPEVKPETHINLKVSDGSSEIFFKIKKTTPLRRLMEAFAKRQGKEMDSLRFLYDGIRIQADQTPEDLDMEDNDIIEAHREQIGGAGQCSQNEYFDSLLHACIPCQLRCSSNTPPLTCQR

[12] = biological target: T8, clipped form of the rhuBCMA fusion protein, SEQ ID NO:354 (human); test: as above
T8 construct: also called Peak A
T8 chain: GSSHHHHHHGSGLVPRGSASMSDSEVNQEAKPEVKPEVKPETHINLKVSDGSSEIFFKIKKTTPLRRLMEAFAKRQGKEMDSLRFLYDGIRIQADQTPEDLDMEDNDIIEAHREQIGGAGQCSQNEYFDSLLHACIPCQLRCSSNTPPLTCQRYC

[13] = biological target: T9, clipped form of the rhuBCMA fusion protein, SEQ ID NO:355 (human); test: as above
T9 chain: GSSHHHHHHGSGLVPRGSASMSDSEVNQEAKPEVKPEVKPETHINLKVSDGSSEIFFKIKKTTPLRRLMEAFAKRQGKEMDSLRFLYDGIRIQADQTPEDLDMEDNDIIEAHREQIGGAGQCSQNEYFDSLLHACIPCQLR

[14] = biological target: T10, rhuBCMA fusion protein (6xHis::Sumo::huBCMA(aa 5-51)::GGS::G3::Avi) (human); test: size exclusion chromatography (S200 column, PBS, UV trace), 500 ug antibody incubated with 500 ug sumoBCMA
T10 construct: Monomeric tagged fusion; the entry holds the tags, Sumo and the BCMA part; also called Sumo-BCMA; SumoBCMA
T10 chain: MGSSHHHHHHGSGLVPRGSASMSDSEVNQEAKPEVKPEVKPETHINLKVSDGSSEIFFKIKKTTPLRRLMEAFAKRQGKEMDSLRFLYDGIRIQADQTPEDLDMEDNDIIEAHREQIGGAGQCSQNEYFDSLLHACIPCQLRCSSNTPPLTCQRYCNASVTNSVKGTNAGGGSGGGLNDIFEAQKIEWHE

[15] = biological target: T1, human BCMA (huBCMA), full length, on …; test: FACS on H929 cells, native BCMA, relative binding, indirect
[16] = biological target: T11, rrat BCMA fusion protein (GS::6xHis::Sumo::ratBCMA(aa 2-49)::GGS::G3::Avi) (rat); test: Biacore T200 SPR, antibody captured on anti-human IgG, rBCMA fusion as analyte, 25 C
T11 chain: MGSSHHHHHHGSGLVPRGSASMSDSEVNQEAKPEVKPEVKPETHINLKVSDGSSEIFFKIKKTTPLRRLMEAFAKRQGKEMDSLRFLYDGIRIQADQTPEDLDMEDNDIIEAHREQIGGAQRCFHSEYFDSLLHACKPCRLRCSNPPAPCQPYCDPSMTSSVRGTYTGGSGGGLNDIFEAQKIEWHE

[17] = biological target: T10, rhuBCMA fusion protein …; test: Biacore T200 SPR, antibody captured on anti-human IgG, rBCMA fusion as analyte, 25 C, 1:1 model
[18] = biological target: T2, recombinant soluble human BCMA (Biacore …); test: Biacore, recombinant soluble human BCMA; measured on parental 2A1; patent says 2A1CV5 binds identically
[19] = biological target: T1, human BCMA (huBCMA), full length, on …; test: FACS, H929 cells
[20] = biological target: T1, human BCMA (huBCMA), full length, on …; test: FACS on H929 myeloma cells
[21] = biological target: T2, recombinant soluble human BCMA (Biacore …); test: Biacore 3000 SPR, antibody captured on anti-human IgG, rhu BCMA as analyte, steady state fit to a 1:1 isotherm

T3 sequence (Q02223 other isoform, or with tags, fused parts or gaps): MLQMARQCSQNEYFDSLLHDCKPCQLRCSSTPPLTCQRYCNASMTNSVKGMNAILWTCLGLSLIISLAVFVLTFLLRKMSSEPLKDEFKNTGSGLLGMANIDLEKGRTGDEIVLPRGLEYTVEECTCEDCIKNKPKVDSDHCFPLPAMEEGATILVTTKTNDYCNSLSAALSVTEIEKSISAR

B1: 1E1 (fully human anti-huBCMA monoclonal antibody) (antibody, IgG1, V domains shown)
VH: QVQLVQSGAEVKKPGASVKVSCKASGYTFTGHYIHWVRQAPGQGLEWMGWIYPNSGGTNYAQKFQGRVTMTRDTSISTAYMELSRLRSDDSAVYYCAREGMVTGDYYYYRMDVWGQGTTVIVSS
VL: QPVLTQPPSASASLGASVTLTCSLSSGYSNYKVDWYQQRPGKGPRFVMRVGIGGIVGSKGDGIPDRFSVLGSGLNRYLTIKNIQEEDESDFHCGADHGSGNNFVYVFGTGTKVTVLG
notes: Recombinantly cloned as IgG1; also called Ab-4
ADCC EC50, calcein-AM labelled H929 target cells [1]: 0.076 µg/mL | Kd [2]: 0.113 nM | Kd [3]: 2.8 nM | Kd [4]: > 100 nM | binding result [5]: no binding | binding result [6]: no binding

B2: 2A1 (parental fully human anti-huBCMA monoclonal antibody) (antibody, human IgG1, lambda, V domains shown)
VH: EVQLVESGGGLVKPGRSLRLSCTASGFTFGDYALSWFRQAPGKGLEWVGVSRSKAYGGTTDYAASVKGRFTISRDDSKSFAYLQMNSLKTEDTAVYYCCSSGYSSGWTPFDYWGQGTLVTVSS
VL: not shown
notes: also called Ab-5; Ab-18
ADCC EC50, calcein-AM labelled H929 target cells [1]: 0.011 µg/mL | EC50 (read off the curve) [7]: ~0.2 µg/mL | EC50 (read off the curve) [8]: ~0.1 µg/mL | EC50 (read off the curve) [9]: ~0.3 µg/mL | Kd [2]: 0.027 nM | binding result [10]: binds | binding result [11]: binds | binding result [12]: binds | binding result [13]: binds | Kd [3]: 1.1 nM | Kd [4]: 0.905 nM | binding result [14]: binds | binding result [5]: no binding | binding result [6]: no binding

B3: Ab-1 (2A1CV5) (antibody, human IgG1, lambda, V domains shown)
VH: B2 VH with R16G, T23A, F80T, C99A
VL: not shown
EC50 [15]: 1.2 nM | Kd [16]: > 10 nM | Kd [17]: 0.155 nM | Kd [18]: 0.027 nM

B4: 2A1CV4 (antibody, human IgG1, lambda, V domains shown)
VH: B2 VH with R16G, T23A, C99A
VL: not shown
notes: IgG1 covariance mutein of 2A1; also called Ab-38; P61055.3
binding result [19]: binds

B5: 2A1 Covariance 19 (2A1_K14Q + R17G + T24A + G32S + F44V + G56S + D84N + F88T + T98A + C107A + S108K; 2A1_E144K VL) (antibody, human IgG1, lambda, V domains shown)
VH: EVQLVESGGGLVQPGGSLRLSCAASGFTFSDYALSWVRQAPGKGLEWVSVSRSKAYGGTTDYAASVKGRFTISRDNSKSTAYLQMNSLKAEDTAVYYCAKSGYSSGWTPFDYWGQGTLVTVSS
VL: not shown
notes: also called Ab-37
binding result [20]: binds

B6: 11F12 (fully human anti-huBCMA monoclonal antibody) (antibody, V domains shown)
VH: QVQLVESGGGVVQPGRSLRLSCAASGFTFSSYGLHWVRQAPGKGLEWVALISYDGSNKYYADSVKGRFTISRDNSKNTLYLQMNSLRAEDTAVYYCWYSSSWTPLDYWGQGTLVTVSS
VL: DIQMTQSPSSLSASVGDRVTITCRASQGIRNDLGWYQQKPGKAPKRLIYAASSLQSGVPSRFSGSGSGTEFTLTISSLQPEDFATYYCLQYYSYPLTFGGGTKVEIKR
notes: also called Ab-6; 11F12_LC#1
Kd [21]: 36.1 nM
